Measured values reported in paper PMC7706699.

Target: hFip1 (residues 137–243) S159C/C189S/C216S mutant, FAM-labeled (human) (UniProt Q6UN15)
Test: fluorescence polarisation

Row | Kd | Substance
1 | 0.022 µM | human CPSF30 (residues 62–244) Y127A mutant (from UniProt O95639-2 62-244) (domain or fragment)
2 | 0.0054 µM | human CPSF30 (residues 62–244) Y151A mutant (from UniProt O95639-2 62-244) (domain or fragment)
3 | 0.0114 µM | human CPSF30 ZF2–C terminus (residues 62–244), wild type (from UniProt O95639-2 62-244) (domain or fragment)
